Patent publication US20200079854A1 (Johns Hopkins, published 2020)

B1: KRAS_G12V_A2_A1 (scFv)
scFv: DIQMTQSPSSLSASVGDRVTITCRASQDVNTAVAWYQQKPGKAPKLLIYSASFLYSGVPSRFSGSRSGTDFTLTISSLQPEDFATYYCQQWYSSPVTFGQGTKVEIKRTGGGSGGGGSGGGASEVQLVESGGGLVQPGGSLRLSCAASGFNINWANMHWVRQAPGKGLEWVAQISPPYDYTNYADSVKGRFTISADTSKNTAYLQMNSLRAEDTAVYYCSRSYSYYFDYWGQGTLVTVSS
B2: CTNNB_S45F_A3_E10 (scFv)
scFv: DIQMTQSPSSLSASVGDRVTITCRASQDVNTAVAWYQQKPGKAPKLLIYSASFLYSGVPSRFSGSRSGTDFTLTISSLQPEDFATYYCQQSYYSPPTFGQGTKVEIKRTGGGSGGGASEVQLVESGGGLVQPGGSLRLSCAASGFNINNTYIHWVRQAPGKGLEWVASIYPTDGYTRYADSVKGRFTISADTSKNTAYLQMNSLRAEDTAVYYCSRTYYSYYSAMDVWGQGTLVTVSS
B3: CTNNB_S45_FA3_c13 (scFv)
scFv: DIQMTQSPSSLSASVGDRVTITCRASQDVNTAVAWYQQKPGKAPKLLIYSAYFLYSGVPSRFSGSRSGTDFTLTISSLQPEDFATYYCQQIYTSPITFGQGTKVEIKRTGGGSGGGGSGGGASEVQLVESGGGLVQPGGSLRLSCAASGFNFITTGMHWVRQAPGKGLEWVARIGPGSDYTNYADSVKGRFTISADTSKNTAYLQMNSLRAEDTAVYYCSRYYYASALDYWGQGTLVTVSS
B4: CTNNB_S45_FA3_c14 (scFv)
scFv: DIQMTQSPSSLSASVGDRVTITCRASQDVNTAVAWYQQKPGKAPKLLIYSASFLYSGVPSRFSGSRSGTDFTLTISSLQPEDFATYYCQQRAYFPITFGQGTKVEIKRTGGGSGGGGSGGGASEVQLVESGGGLVQPGGSLRLSCAASGFNFSDYGMHWVRQAPGKGLEWVAMLIPASGYTNYADSVKGRFTISADTSKNTAYLQMNSLRAEDTAVYYCSRGWSYYMDYWGQGTLVTVSS
B5: CTNNB_S45_FA3 c17 (scFv)
scFv: DIQMTQSPSSLSASVGDRVTITCRASQDVNTAVAWYQQKPGKAPKLLIYSASFLYSGVPSRFSGSRSGTDFTLTISSLQPEDFATYYCQQQYAYTPITFGQGTKVEIKRTGGGSGGGGSGGGASEVQLVESGGGLVQPGGSLRLSCAASGFNVWSYGIHWVRQAPGKGLEWVAGVTPDGSYTYYADSVKGRFTISADTSKNTAYLQMNSLRAEDTAVYYCSRSYGWAMDYWGQGTLVTVSS
B6: CTNNB_S45_FA3 c19 (scFv)
scFv: DIQMTQSPSSLSASVGDRVTITCRASQDVNTAVAWYQQKPGKAPKLLIYSAYFLYSGVPSRFSGSRSGTDFTLTISSLQPEDFATYYCQQIHYKPLTFGQGTKVEIKRTGGGSGGGGSGGGASEVQLVESGGGLVQPGGSLRLSCAASGFNVAWYSIHWVRQAPGKGLEWVAQVYGGSSYTYYADSVKGRFTISADTSKNTAYLQMNSLRAEDTAVYYCSRDFYSSGMDYWGQGTLVTVSS
B7: KRAS_G12D_A11_D3 (scFv)
scFv: DIQMTQSPSSLSASVGDRVTITCRASQDVNTAVAWYQQKPGKAPKLLIYSASFLYSGVPSRFSGSRSGTDFTLTISSLQPEDFATYYCQQYSYYPITFGQGTKVEIKRTGGGSGGGGSGGGASEVQLVESGGGLVQPGGSLRLSCAASGFNFSYGYMHWVRQAPGKGLEWVAWISGYTGNTYYADSVKGRFTISADTSKNTAYLQMNSLRAEDTAVYYCSRAASLSSSYYSAFDVWGQGTLVTVSS
B8: KRAS_G12D_A11_D14 (scFv)
scFv: DIQMTQSPSSLSASVGDRVTITCRASQDVNTAVAWYQQKPGKAPKLLIYSASFLYSGVPSRFSGSRSGTDFTLTISSLQPEDFATYYCQQYSYTPVTFGQGTKVEIKRTGGGSGGGGSGGGASEVQLVESGGGLVQPGGSLRLSCAASGFNVWGPGMHWVRQAPGKGLEWVARIHPFSGNTYYADSVKGRFTISADTSKNTAYLQMNSLRAEDTAVYYCSRGYSYSAMDYWGQGTLVTVSS
B9: KRAS_G12D_A11_D18 (scFv)
scFv: DIQMTQSPSSLSASVGDRVTITCRASQDVNTAVAWYQQKPGKAPKLLIYSASFLYSGVPSRFSGSRSGTDFTLTISSLQPEDFATYYCQQYSYEPVTFGQGTKVEIKRTGGGSGGGGSGGGASEVQLVESGGGLVQPGGSLRLSCAASGFNVSGSQMHWVRQAPGKGLEWVARIPGWSGYTYYADSVKGRFTISADTSKNTAYLQMNSLRAEDTAVYYCSRGYSYFAMDYWGQGTLVTVSS
B10: KRAS_G12D_A11_D21 (scFv)
scFv: DIQMTQSPSSLSASVGDRVTITCRASQDVNTAVAWYQQKPGKAPKLLIYSASFLYSGVPSRFSGSRSGTDFTLTISSLQPEDFATYYCQQYAYYSPVTFGQGTKVEIKRTGGGSGGGGSGGGASEVQLVESGGGLVQPGGSLRLSCAASGFNIYGQMMHWVRQAPGKGLEWVAFLSPFSGNTYYADSVKGRFTISADTSKNTAYLQMNSLRAEDTAVYYCSRNISYEQSSAFDYWGQGTLVTVSS
B11: KRAS_G12D_A11_D22 (scFv)
scFv: DIQMTQSPSSLSASVGDRVTITCRASQDVNTAVAWYQQKPGKAPKLLIYSASFLYSGVPSRFSGSRSGTDFTLTISSLQPEDFATYYCQQYEYYPMTFGQGTKVEIKRTGGGSGGGGSGGGASEVQLVESGGGLVQPGGSLRLSCAASGFNVMYSTMHWVRQAPGKGLEWVASIYSWSDYTYYADSVKGRFTISADTSKNTAYLQMNSLRAEDTAVYYCSRGYAHNSFDYWGQGTLVTVSS
B12: KRAS_G12D_A3_c111 (scFv)
scFv: DIQMTQSPSSLSASVGDRVTITCRASQDVNTAVAWYQQKPGKAPKLLIYSASFLYSGVPSRFSGSRSGTDFTLTISSLQPEDFATYYCQQYMYSPVTFGQGTKVEIKRTGGGSGGGGSGGGASEVQLVESGGGLVQPGGSLRLSCAASGFNVSAYWMHWVRQAPGKGLEWVAQIYGGSGYTMYADSVKGRFTISADTSKNTAYLQMNSLRAEDTAVYYCSRTHSYWSAFDYWGQGTLVTVSS
B13: KRAS_G12D_A3_D12 (scFv)
scFv: DIQMTQSPSSLSASVGDRVTITCRASQDVNTAVAWYQQKPGKAPKLLIYSASFLYSGVPSRFSGSRSGTDFTLTISSLQPEDFATYYCQQSSSSPITFGQGTKVEIKRTGGGSGGGGSGGGASEVQLVESGGGLVQPGGSLRLSCAASGFNISGYGMHWVRQAPGKGLEWVAYLYGGSDYTNYADSVKGRFTISADTSKNTAYLQMNSLRAEDTAVYYCSRTVRYAFDYWGQGTLVTVSS
B14: KRAS_G12D_A3_D15 (scFv)
scFv: DIQMTQSPSSLSASVGDRVTITCRASQDVNTAVAWYQQKPGKAPKLLIYSASFLYSGVPSRFSGSRSGTDFTLTISSLQPEDFATYYCQQSSASPLTFGQGTKVEIKRTGGGSGGGGSGGGASEVQLVESGGGLVQPGGSLRLSCAASGFNVSSVGMHWVRQAPGKGLEWVAYIYGTSDYTYYADSVKGRFTISADTSKNTAYLQMNSLRAEDTAVYYCSRSSRYSMDYWGQGTLVTVSS
B15: KRAS_G12D_A3_D26 (scFv)
scFv: DIQMTQSPSSLSASVGDRVTITCRASQDVNTAVAWYQQKPGKAPKLLIYSASFLYSGVPSRFSGSRSGTDFTLTISSLQPEDFATYYCQQYAYSPLTFGQGTKVEIKRTGGGSGGGGSGGGASEVQLVESGGGLVQPGGSLRLSCAASGFNVSSYGMHWVRQAPGKGLEWVAFIAPRRDYTSYADSVKGRFTISADTSKNTAYLQMNSLRAEDTAVYYCSRKSSYYFDYWGQGTLVTVSS
B16: KRAS G12V_A3_V12 (scFv)
scFv: DIQMTQSPSSLSASVGDRVTITCRASQDVNTAVAWYQQKPGKAPKLLIYSASFLYSGVPSRFSGSRSGTDFTLTISSLQPEDFATYYCQQASYYYPLTFGQGTKVEIKRTGGGSGGGGSGGGASEVQLVESGGGLVQPGGSLRLSCAASGFNISASGMHWVRQAPGKGLEWVADIHPLKPYTNYADSVKGRFTISADTSKNTAYLQMNSLRAEDTAVYYCSRYSSMYYYYFDYWGQGTLVTVSS
B17: KRAS G12V_A3_c120 (scFv)
scFv: DIQMTQSPSSLSASVGDRVTITCRASQDVNTAVAWYQQKPGKAPKLLIYSASFLYSGVPSRFSGSRSGTDFTLTISSLQPEDFATYYCQQKSEYSPWTFGQGTKVEIKRTGGGSGGGGSGGGASEVQLVESGGGLVQPGGSLRLSCAASGFNIYRYGIHWVRQAPGKGLEWVAVLYPYGYSTSYADSVKGRFTISADTSKNTAYLQMNSLRAEDTAVYYCSRSYAYGYFAYWGQGTLVTVSS
B18: KRAS G12V_A3_c121 (scFv)
scFv: DIQMTQSPSSLSASVGDRVTITCRASQDVNTAVAWYQQKPGKAPKLLIYSASFLYSGVPSRFSGSRSGTDFTLTISSLQPEDFATYYCQQSGYIPFTFGQGTKVEIKRTGGGSGGGGSGGGASEVQLVESGGGLVQPGGSLRLSCAASGFNIYGTMMHWVRQAPGKGLEWVAQFKPDSYNTYYADSVKGRFTISADTSKNTAYLQMNSLRAEDTAVYYCSRGEVYHYYAFDYWGQGTLVTVSS
B19: KRAS G12V_A3_c122 (scFv)
scFv: DIQMTQSPSSLSASVGDRVTITCRASQDVNTAVAWYQQKPGKAPKLLIYSASFLYSGVPSRFSGSRSGTDFTLTISSLQPEDFATYYCQQGAYYRPFTFGQGTKVEIKRTGGGSGGGGSGGGASEVQLVESGGGLVQPGGSLRLSCAASGFNISYSYMHWVRQAPGKGLEWVATLLPYDGNTYYADSVKGRFTISADTSKNTAYLQMNSLRAEDTAVYYCSRAAYSSMDVWGQGTLVTVSS

What follows are binders tested against KRAS wt(6-14) peptide … with HLA-A2 and b2M on peptide-pulsed T2 cells (human) (assay: flow cytometry, phage-displayed scFv on peptide-pulsed T2 cells (FIG. 5)).
Protocol: (§1) Cells were stained with 10 μL of precipitated phage per 100 μL of cells, washed and stained with rabbit anti-M13 antibody, then washed and stained with anti-Rabbit-PE antibody. Cells were stained with a live/dead Near-IR dye, washed, and analyzed by an LSRII flow cytometer.
(§2) The pulsed cells were pelleted, washed once in cold stain buffer (PBS containing 0.5% BSA, 2 mM EDTA, and 0.1% sodium azide), and resuspended in 100 μL of stain buffer. Phage staining was performed on ice with 10 uL (approximately 1×10⁹) phage for 1 hour in 100 uL total volume, followed by one 4 mL wash in cold stain buffer. Cells were then stained with 1 uL of rabbit anti-M13 antibody (Pierce, Rockford, Ill.) in 100 uL total volume on ice for 1 hour and washed once with 4 mL of cold stain buffer. Cells were stained with anti-rabbit-PE (Biolegend) on ice for 1 hour in 100 uL total volume, followed by incubation with LIVE/DEAD Fixable Near-IR Dead Cell Stain (Thermo Fisher) for 10 min at room temperature per manufacturer's instructions. Cells were washed once in 4 mL of stain buffer followed by resuspension in 300 uL of stain buffer before analysis. Stained cells were analyzed using an LSRII flow cytometer (Becton Dickinson, Mansfield, Mass.).
B1: no binding.

Each binder was assayed against CTNNB wt(41-49) peptide … with HLA-A3 and b2M on peptide-pulsed T2A3 cells (human) (assay: flow cytometry, phage-displayed scFv on peptide-pulsed T2A3 cells (FIG. 12)).
Protocol: (§3) Cells were stained with 10 of precipitated phage per 100 μL of cells, washed and stained with rabbit anti-M13 antibody, then washed and stained with anti-Rabbit-PE antibody. Cells were stained with a live/dead Near-IR dye, washed, and analyzed by an LSRII flow cytometer.
as §2
B2: no binding. B3: no binding. B4: no binding. B5: no binding. B6: no binding.

Each binder was assayed against KRAS wt(7-16) peptide … with HLA-A11 and b2M on peptide-pulsed Hs611.T cells (human) (assay: flow cytometry, phage-displayed scFv on peptide-pulsed Hs611.T cells (FIG. 9)).
Protocol: as §3, §2
B7: no binding. B8: no binding. B9: no binding. B10: no binding. B11: no binding.

What follows are binders tested against T1, KRAS wt(7-16) peptide … with HLA-A3 and b2M on cells (human) (assay: flow cytometry, phage-displayed scFv on peptide-pulsed T2A3 cells (FIG. 8)).
T1 construct: peptide-pulsed T2A3 cells in flow cytometry
Protocol: as §1, §2
B12: no binding. B13: no binding. B14: no binding. B15: no binding.

These binders were tested against T1, KRAS wt(7-16) peptide … with HLA-A3 and … (assay: flow cytometry, phage-displayed scFv on peptide-pulsed T2A3 cells (FIG. 7)).
Protocol: as §2
B16: no binding. B17: no binding. B18: no binding. B19: no binding.
